The chains are these.
B1: affinity matured antibody Amhz81H10.4.30 (antibody, human IgG1, kappa, V domains shown)
VH: EVQLVESGGGLVKPGGSLRLSCAASGFTFRAAWMNWVRQAPGKGLEWVAEIRLKSNHYETHYAESVKGRFTISRDVSKNTVYLQMNSLKTEDTAVYYCTDTQPGAYWGQGTLVTVSS
VL: DIQMTQSPSSLSASVGDRVTITCKASQYVFTDVAWYQQKPGKAPKLLIYWASTRWTGVPSRFSGSGSGTDFTLTISSLQPEDFATYYCQQTSSYPLTFGGGTKVEIKR
B2: affinity matured antibody Amhz81H10.4.49 (antibody, human IgG1, kappa, V domains shown)
VH: B1 VH with R30Q, A31N, A32Y, M34A, H57N, E59A, Q102T, G104A
VL: B1 VL with Y28D, F30W, A51G, S92N, S93I
notes: also called Am81H10.4.49
B3: chimeric antibody 86E9 (antibody, human IgG1, kappa)
heavy: not shown
light: DIVMTQSHKFLSTSVGARVSITCKASQDVGTDVAWYQQKPGQSPKLLIYWASTRHTGVPDRFTGSGSGTDFTLTISNVQSEDLSDYFCQQYSSYPLTFGGGTKLEIKRTVAAPSVFIFPPSDEQLKSGTASVVCLLNNFYPREAKVQWKVDNALQSGNSQESVTEQDSKDSTYSLSSTLTLSKADYEKHKVYACEVTHQGLSSPVTKSFNRGEC
B4: chimeric antibody 107H7 (antibody, human IgG1, kappa)
heavy: not shown
light: B3 light with S7T, H8P
B5: chimeric antibody 81H10 (antibody, human IgG1, kappa, V domains shown)
VH: EVKLEESGGGLVQPGGSMKLSCVASGFTFSNYWMNWVRQSPEKGLEWVAEIRLKSNNYATHYAESVKGRFTISRDVSKSSVYLQMNNLRTEDTGIYYCTDTAPFAYWGQGTLVTVSA
VL: DIVMTQSHKFMSTSVGDRVSITCKASQDVGTDVAWYQQKPGQSPKLLIYWASTRHTGVPDRFTGSGSGTDFTLTISNVQSEDLSDYFCQQYSSYPLTFGGGTKLEIKR
B6: parental murine hybridoma antibody of chimeric antibody 86E9 (antibody, V domains shown)
VH: B5 VH with K3M, E5V, S80G
VL: DIVMTQSHKFLSTSVGARVSITCKASQDVGTDVAWYQQKPGQSPKLLIYWASTRHTGVPDRFTGSGSGTDFTLTISNVQSEDLSDYFCQQYSSYPLTFGGGTKLEIK
notes: Murine antibody from the hybridoma; also called 86E9 (murine hybridoma antibody)
B7: parental murine hybridoma antibody of chimeric antibody 81H10 (antibody, V domains shown)
VH: B5 VH
VL: B6 VL with L11M, A17D
notes: Murine antibody from the hybridoma; also called 81H10 (murine hybridoma antibody)
B8: parental murine hybridoma antibody of chimeric antibody 107H7 (antibody, V domains shown)
VH: B5 VH with K3M, E5V, S80G
VL: B6 VL with S7T, H8P
notes: Murine antibody from the hybridoma; also called 107H7 (murine hybridoma antibody)

Residue numbers refer to the chain shown, from its start.

One assay addresses T1, Human Ang1 (human, UniProt Q15389 20-498, limits assumed).
T1 construct: also called hAng1
T1 sequence (looked up): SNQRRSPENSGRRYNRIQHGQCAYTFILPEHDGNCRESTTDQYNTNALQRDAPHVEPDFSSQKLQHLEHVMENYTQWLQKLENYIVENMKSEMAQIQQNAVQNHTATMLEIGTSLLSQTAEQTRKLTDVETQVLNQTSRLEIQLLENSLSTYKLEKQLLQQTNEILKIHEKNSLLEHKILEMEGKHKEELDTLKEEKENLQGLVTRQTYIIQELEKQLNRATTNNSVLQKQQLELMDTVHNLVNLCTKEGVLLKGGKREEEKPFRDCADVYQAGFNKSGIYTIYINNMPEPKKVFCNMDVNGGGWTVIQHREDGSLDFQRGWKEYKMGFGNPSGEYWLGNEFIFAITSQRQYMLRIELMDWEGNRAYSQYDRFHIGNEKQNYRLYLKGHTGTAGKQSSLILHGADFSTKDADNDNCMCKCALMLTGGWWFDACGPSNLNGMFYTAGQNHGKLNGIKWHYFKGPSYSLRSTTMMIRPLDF
Description: ForteBio BLI, antibody on AHQ sensor. As to the method:
(§1) The equilibrium dissociation constants (KD) of the above exemplary antibodies of the present invention binding to human Ang2 (h Ang2), cynomolgus monkey Ang2 (cAng2), murine Ang2 (mAng2), and human Ang1 (hAng1) were determined using the biological optical interferometry (ForteBio) assay.
(§2) The ForteBio affinity assay was performed according to the existing method (Estep, P et al., High throughput solution-based measurement of antibody-antigen affinity and epitope binning. MAbs, 2013.5 (2): p. 270-8). Briefly, the sensor was equilibrated in the assay buffer off-line for 30 min, followed by on-line detection for 60 s to establish the baseline. Then the purified antibodies obtained as described above were loaded on-line onto an AHQ sensor (ForteBio) for ForteBio affinity assay. The sensors with loaded antibodies were exposed to 100 nM of hAng2, cAng2, mAng2, and hAng1 antigens for 5 min, and then were transferred into the assay buffer for dissociation for 5 min to determine the dissociation rate. Kinetic analysis was performed using a 1:1 binding model.
Consider B1, for which the binding result was “no binding (tested: 100 nM)”.
Consider B2, for which the binding result is reported as “no binding (tested: 100 nM)”.
Still for that read-out and setting: the value for B3 was “no binding (tested: 100 nM)”; that for B4 was “no binding (tested: 100 nM)”.
On the same count and under the same terms, to B5 belongs “no binding (tested: 100 nM)”.

The target of the next assay is T2, recombinant biotinylated hAngiopoietin-2 protein (R&D, Cat. No.: BT623B/CF) (human, UniProt O15123 19-496, limits assumed, biotinylated (sites not given)).
T2 construct: Bought protein; also called Biotin Ang2; human biotin Ang2 protein
T2 sequence: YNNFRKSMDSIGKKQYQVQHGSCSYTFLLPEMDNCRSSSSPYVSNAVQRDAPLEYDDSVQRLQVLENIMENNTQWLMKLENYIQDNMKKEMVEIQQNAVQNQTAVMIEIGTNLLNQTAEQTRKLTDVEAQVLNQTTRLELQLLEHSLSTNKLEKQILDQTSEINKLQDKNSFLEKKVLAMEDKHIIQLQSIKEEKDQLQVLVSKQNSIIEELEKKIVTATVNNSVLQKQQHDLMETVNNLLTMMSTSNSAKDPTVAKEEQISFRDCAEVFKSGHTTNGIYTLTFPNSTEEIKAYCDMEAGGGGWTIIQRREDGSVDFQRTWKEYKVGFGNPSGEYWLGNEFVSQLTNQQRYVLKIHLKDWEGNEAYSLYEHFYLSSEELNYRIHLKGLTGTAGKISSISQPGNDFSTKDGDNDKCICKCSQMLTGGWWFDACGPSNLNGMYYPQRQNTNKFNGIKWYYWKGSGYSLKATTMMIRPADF
Description: blocking ELISA: antibody titrated against biotinylated hAng2 (300 ng/ml final); blocked binding to coated hTie2 protein; Avidin-HRP detection. Here is the method:
The abilities of 81H10, 86E9, 107H7, hz81H10.4, Amhz81H10.4.30, Amhz81H10.4.49, and the control antibodies Nesvacumab and faricimab to block the binding of human Ang2 to hTie2 were determined by ELISA. Faricimab is a bispecific antibody drug undergoing a clinical trial and developed by Roche, which targets both angiopoietin-2 (Ang-2) and VEGF-A.
Then the plate was blocked using 5% BSA for 1 h. The biotinylated antigen, recombinant biotinylated hAngiopoietin-2 protein (R&D, Cat. No.: BT623B/CF), was diluted to 600 ng/ml, and was added into the microtiter plate at 50 μl/well. The antibodies (81H10, 86E9, 107H7, hz81H10.4, Amhz81H10.4.30 and Amhz81H10.4.49) prepared as described above were gradiently diluted with a total of 8 or 12 dilution points starting from the highest concentration, and then added to the microtiter plate at 50 μl/well, and incubated in PBS on ice for 30 min. Then, 50 ul of antigen solution was added to the microtiter plate, in which the final antigen concentration was 300 ng/ml. The plate containing the antigen-antibody mixture was incubated for 90 min. After three washes with PBS, the supernatant was discarded, and Avidin-HRP (Invitrogen) diluted at 1:10000 was added at 100 μl/well, then incubated at room temperature for 30 min. PBS was used to wash the plate six times. Then TMB chromogen solution (solarbio) was added at 100 ul/well to allow for chromogenic reaction for 1 min, then the reaction was terminated with the addition of stop solution (solarbio) at 100 ul/well.
On to B1, for which the IC50 was found to be 4.91 nM.
In the case of B2, the IC50 amounted to 0.506 nM.
For the molecule B3, the IC50 came out at 5.29 nM.
On the same count and under the same terms, to B4 belongs 9.15 nM; to B5, 1.32 nM.

In the next assay the target is T3, Human ang2 protein (Sino Biological, Cat No.: 10691-H08H) (human, UniProt O15123 19-496).
T3 construct: Bought protein; also called recombinant hAng2; human hAng2
T3 sequence: T2 sequence
Put plainly: ELISA: human ang2 protein (Sino Biological 10691-H08H) coated at 0.25 ug/ml, antibody titrated, HRP-conjugated secondary antibody, OD450-OD620, GraphPad fit. As to the method:
The binding of the respective parental murine hybridoma antibodies of the above exemplary chimeric antibodies 81H10, 86E9, and 107H7 to human hAng2 was measured in an ELISA-based assay.
Human ang2 protein (Sino Biological, Cat No.: 10691-H08H) was diluted to 0.25 μg/ml with PBS, and was coated onto a microtiter plate at 100 μl/well at 4° C. overnight. After three washes with PBST, the plate was blocked with 5% BSA. Gradient diluted antibodies (maximum concentration 20 nM, 1:2 serial dilution) were added to the microtiter plate and incubated for 2 h. After three washes with PBST, a 1:10000 dilution of anti-mouse IgG, HRP-conjugated antibody (Cell Signaling, Cat. No. 7076P2) was added, and after incubation for 60 min, the plate was washed six times with PBST. Chromogenic reaction was performed with 100 ul TMB and terminated with 100 ul 2N sulfuric acid. The reading of OD₄₅₀-OD₆₂₀ was taken by microplate reader. The concentration-dependent curve was fitted with GraphPad based on the OD₄₅₀-OD₆₂₀.
B6 gave an EC50 of 0.434 nM.
For the molecule B7, the EC50 stood at 0.248 nM.
In turn, B8 displayed a half-maximal effective concentration (EC50) of 0.231 nM.

For the next assay, the target named is T2, recombinant biotinylated …. Put plainly: ELISA: biotin Ang2 (R&D BT623B/CF) captured on coated streptavidin (SA), antibody titrated, anti-human IgG-HRP, OD450-OD620, GraphPad fit. As to the method:
The binding of 81H10 and hz81H10.4 of the present invention to human biotin Ang2 protein was measured in an SA-biotin Ang2-based ELISA assay.
SA protein (Thermo Fisher) was diluted to 1 μg/ml with PBS, and was coated onto a microtiter plate at 100 μl/well at 4° C. overnight. After three washes with PBST, the plate was blocked with 5% BSA for 1 h. Biotin Ang2 (R&D, Cat. No. BT623B/CF) was incubated at a concentration of 0.5 μg/ml for 1 h. Gradient diluted antibodies (maximum concentration 20 nM, 1:3 serial dilution) were added to the microtiter plate and incubated for 2 h, and the plate was washed three times with PBST. […] Then the plate was washed for 6 times with PBST. Chromogenic reaction was performed with 100 ul TMB and terminated with 100 ul 2N sulfuric acid. The reading of OD₄₅₀-OD₆₂₀ was taken by microplate reader. The concentration-dependent curve was fitted with GraphPad based on the OD₄₅₀-OD₆₂₀.
On to B5, for which the concentration giving a half-maximal response (EC50) came to 0.0142 nM.

Another assay has as its target T4, human Ang2 (human, UniProt O15123 19-496, limits assumed).
T4 construct: also called hAng2; h Ang2
T4 sequence: T2 sequence
Description: ForteBio BLI, antibody on AHQ sensor, 100 nM antigen, 1:1 model. Here is the method: as §1, §2
Turning to B1, the dissociation constant (Kd) turned out to be 23.2 nM.
As for B2, the affinity, expressed as Kd, was 0.647 nM.
Consider B3, for which the dissociation constant (Kd) was determined as 7.63 nM.
Consider B4, for which the Kd was determined as 7.75 nM.
The same measure, in the same setting: to B5 belongs 6.92 nM.

The values above are taken from patent US20240239881A1 (Innovent, published 2024).
